Laboratory results published in PMC6587167.

Columns and labels:
[1] = western blot, MIA-PACA2; conditions: glycan lost; control: wild-type Sox2 overexpression
[2] = dual luciferase Sox2 reporter; conditions: glycan lost; control: untreated / control siRNA / scrambled control
[3] = western blot, S2VP10 and L3.6PL; conditions: glycan lost; control: untreated cells
[4] = cycloheximide chase, western blot, endogenous Sox2; conditions: glycan lost; control: untreated / scrambled control S2VP10

Substance | expression_or_secretion [1] | other: transcriptional activity [2] | expression_or_secretion [3] | degradation_or_half_life [4]
SOX2: S246A | decreases |  |  | 
SOX2: OSMI |  | decreases | decreases | decreases
SOX2: siOGT |  | decreases |  | 
